The test system of series [1] is DDX21. Put plainly: EMSA. In general terms: In EMSA bound probe runs differently from free probe, usually more slowly.
Series [2] deals with Rev WT, labelled with Alexa 555 (HIV-1) (UniProt P04616). Description: fluorescence polarisation. (Polarisation of emitted light reports the rotation of a fluorescent probe.)
Series [3] deals with Rev (Human immunodeficiency virus 1) (UniProt P04325). Description: fluorescence binding. As to conditions: cited from earlier work.

Broadly, the Kd is the equilibrium constant for the complex coming apart.

RRE RNA (EMSA): the Kd in series [1] came out at 37 nM. For the molecule “DDX3 (from UniProt O00571 1-662) (enzyme)”, the Kd in series [2] stood at 122 nM.

“DDX3 DEAD domain (aa 211-403) (from UniProt O00571 211-403) (domain or fragment)” gave a Kd in series [2] of 200 nM. For DDX1 DEAD domain (from UniProt Q92499), the dissociation constant (Kd) in series [3] is 79 nM.

B1: DDX21 DEAD domain (aa 217-396) (domain or fragment)
chain: FHHVYSGKDLIAQARTGTGKTFSFAIPLIEKLHGELQDRKRGRAPQVLVLAPTRELANQVSKDFSDITKKLSVACFYGGTPYGGQFERMRNGIDILVGTPGRIKDHIQNGKLDLTKLKHVVLDEVDQMLDMGFADQVEEILSVAYKKDSEDNPQTLLFSATCPHWVFNVAKKYMKSTYEQ
B1 returned a Kd in series [2] of 60 nM.

B2: DDX21 (enzyme)
chain: MPGKLRSDAGLESDTAMKKGETLRKQTEEKEKKEKPKSDKTEEIAEEEETVFPKAKQVKKKAEPSEVDMNSPKSKKAKKKEEPSQNDISPKTKSLRKKKEPIEKKVVSSKTKKVTKNEEPSEEEIDAPKPKKMKKEKEMNGETREKSPKLKNGFPHPEPDCNPSEAASEESNSEIEQEIPVEQKEGAFSNFPISEETIKLLKGRGVTFLFPIQAKTFHHVYSGKDLIAQARTGTGKTFSFAIPLIEKLHGELQDRKRGRAPQVLVLAPTRELANQVSKDFSDITKKLSVACFYGGTPYGGQFERMRNGIDILVGTPGRIKDHIQNGKLDLTKLKHVVLDEVDQMLDMGFADQVEEILSVAYKKDSEDNPQTLLFSATCPHWVFNVAKKYMKSTYEQVDLIGKKTQKTAITVEHLAIKCHWTQRAAVIGDVIRVYSGHQGRTIIFCETKKEAQELSQNSAIKQDAQSLHGDIPQKQREITLKGFRNGSFGVLVATNVAARGLDIPEVDLVIQSSPPKDVESYIHRSGRTGRAGRTGVCICFYQHKEEYQLVQVEQKAGIKFKRIGVPSATEIIKASSKDAIRLLDSVPPTAISHFKQSAEKLIEEKGAVEALAAALAHISGATSVDQRSLINSNVGFVTMILQCSIEMPNISYAWKELKEQLGEEIDSKVKGMVFLKGKLGVCFDVPTASVTEIQEKWHDSRRWQLSVATEQPELEGPREGYGGFRGQREGSRGFRGQRDGNRRFRGQREGSRGPRGQRSGGGNKSNRSQNKGQKRSFSKAFGQ
In series [2], B2 yielded a dissociation constant Kd of 21 nM.

B3: DDX1 (enzyme)
chain: MAAFSEMGVMPEIAQAVEEMDWLLPTDIQAESIPLILGGGDVLMAAETGSGKTGAFSIPVIQIVYETLKDQQEGKKGKTTIKTGASVLNKWQMNPYDRGSAFAIGSDGLCCQSREVKEWHGCRATKGLMKGKHYYEVSCHDQGLCRVGWSTMQASLDLGTDKFGFGFGGTGKKSHNKQFDNYGEEFTMHDTIGCYLDIDKGHVKFSKNGKDLGLAFEIPPHMKNQALFPACVLKNAELKFNFGEEEFKFPPKDGFVALSKAPDGYIVKSQHSGNAQVTQTKFLPNAPKALIVEPSRELAEQTLNNIKQFKKYIDNPKLRELLIIGGVAARDQLSVLENGVDIVVGTPGRLDDLVSTGKLNLSQVRFLVLDEADGLLSQGYSDFINRMHNQIPQVTSDGKRLQVIVCSATLHSFDVKKLSEKIMHFPTWVDLKGEDSVPDTVHHVVVPVNPKTDRLWERLGKSHIRTDDVHAKDNTRPGANSPEMWSEAIKILKGEYAVRAIKEHKMDQAIIFCRTKIDCDNLEQYFIQQGGGPDKKGHQFSCVCLHGDRKPHERKQNLERFKKGDVRFLICTDVAARGIDIHGVPYVINVTLPDEKQNYVHRIGRVGRAERMGLAISLVATEKEKVWYHVCSSRGKGCYNTRLKEDGGCTIWYNEMQLLSEIEEHLNCTISQVEPDIKVPVDEFDGKVTYGQKRAAGGGSYKGHVDILAPTVQELAALEKEAQTSFLHLGYLPNQLFRTF
For B3, the Kd in series [2] is 41 nM.

B4: DDX21(183-620) (domain or fragment)
chain: QKEGAFSNFPISEETIKLLKGRGVTFLFPIQAKTFHHVYSGKDLIAQARTGTGKTFSFAIPLIEKLHGELQDRKRGRAPQVLVLAPTRELANQVSKDFSDITKKLSVACFYGGTPYGGQFERMRNGIDILVGTPGRIKDHIQNGKLDLTKLKHVVLDEVDQMLDMGFADQVEEILSVAYKKDSEDNPQTLLFSATCPHWVFNVAKKYMKSTYEQVDLIGKKTQKTAITVEHLAIKCHWTQRAAVIGDVIRVYSGHQGRTIIFCETKKEAQELSQNSAIKQDAQSLHGDIPQKQREITLKGFRNGSFGVLVATNVAARGLDIPEVDLVIQSSPPKDVESYIHRSGRTGRAGRTGVCICFYQHKEEYQLVQVEQKAGIKFKRIGVPSATEIIKASSKDAIRLLDSVPPTAISHFKQSAEKLIEEKGAVEALAAALAHISG
Turning to B4, in series [2], the Kd turned out to be 48 nM.

The record behind these values is publication PMC5762417.
